Here are results for two molecules from patent US20200132689A1 (ARIZONA BOARD OF REGENTS ON BEHALF OF THE UNIVERSITY OF …, published 2020).

For the test, the target named is T1, nicotinamide phosphoribosyltransferase (NAMPT) (Homo sapiens (Human), UniProt P43490 1-491).
T1 construct: also called PBEF; visfatin
Nature of the test: method not stated.

T1 sequence (P43490 whole entry): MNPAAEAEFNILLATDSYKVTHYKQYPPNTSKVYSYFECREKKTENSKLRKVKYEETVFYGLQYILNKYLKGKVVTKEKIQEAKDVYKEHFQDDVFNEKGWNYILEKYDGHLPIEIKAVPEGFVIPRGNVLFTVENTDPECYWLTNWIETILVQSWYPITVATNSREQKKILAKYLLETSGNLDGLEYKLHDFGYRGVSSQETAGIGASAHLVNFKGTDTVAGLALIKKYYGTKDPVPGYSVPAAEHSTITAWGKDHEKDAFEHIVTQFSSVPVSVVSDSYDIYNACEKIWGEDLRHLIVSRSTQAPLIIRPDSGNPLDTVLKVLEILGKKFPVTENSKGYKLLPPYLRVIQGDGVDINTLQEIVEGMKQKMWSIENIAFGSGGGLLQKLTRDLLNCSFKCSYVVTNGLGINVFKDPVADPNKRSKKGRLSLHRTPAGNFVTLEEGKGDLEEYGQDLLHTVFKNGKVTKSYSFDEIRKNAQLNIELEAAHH

B1: murine anti-NAMPT mAb AL303 (antibody, V domains shown)
VH: QVQLQQPGADLVKPGASVKLSCKASGYTFTSYWMQWVKQRPGQGLEWIGEIDPSNSYTNYNQKFRGKATLTVDPSSSTAYMQLSSLTSEDSAVYYCARGGYWGQGTTLTVSS
VL: DIVMTQAAFSNPVTLGTSASISCRSSKSLLHSNGITYLYWYLQKPGQSPQLLIYQMSNLASGVPDRFSSSGSGTDFTLRISRVEAEDVGVYYCVQNLELPYTFGGGTKLEIK
With B1, the affinity, expressed as Kd, was 6 nM.

B2: murine anti-NAMPT mAb AL310 (antibody, V domains shown)
VH: QVQLQQSGAESVMPGASVKLSCKASGYTFTSYWMHWVKQRPGQGLEWIGEIDPSDSYTNYNQKFKGKSTLTVDKSSSTAYMQLSSLTSEDSAVYYCAKSNYVVPWYFDVWGTGTTVTVSS
VL: DIVMTQAAFSNPVTLGTSASISCRSSKSLLHSNGITYLYWYLQKPGQSPQLLIYQMSNLASGVPDRFSSSGSGTDFTLRISRVEAEDVGVYYCAQNLELPWTFGGGTKLEIK
With B2, binding was characterised by a dissociation constant (Kd) of 9 nM.
